Measured values: article PMC8561740

Target: bovine thyroglobulin (natively iodinated) (bovine) (UniProt P01267)
Test: cryo-EM structure; single-particle cryoEM; Tg at 7 mg/ml in 10 mM HEPES pH 7.4, 100 mM NaCl with 0.2% (w/v) CHAPS; vitrified at 4°C; C2 symmetry expansion, focused refinements

**Q.** For “bovine thyroglobulin (natively iodinated) (from UniProt P01267 20-2769) (natural protein)”, which stoichiometry N is on record?
**A.** 2
